Reference: patent US20160208018A1 (JUNO THERAPEUTICS, published 2016)

Target: T1, Mouse ROR1 (mouse, UniProt Q9Z139 30-937)
T1 construct: also called mROR1; K562/mouse ROR1
Test: inferred from IFN-gamma release of CAR-expressing CD8+ T cells co-cultured with K562/mouse ROR1 cells
Method: Cytokine release was assessed following incubation of the CAR-expressing cells with either K562/human ROR1 (hROR1) or K562/mouse ROR1 (mROR1) antigen-expressing cells. Transduced CD8+ T cells were co-cultured with antigen-expressing cells at a single effector to target (E:T). The co-cultured cells were incubated for about 24 hours, and then supernatants were collected for measurement of IFN-γ using a cytokine immunoassay.

T1 sequence (Q9Z139 30-937): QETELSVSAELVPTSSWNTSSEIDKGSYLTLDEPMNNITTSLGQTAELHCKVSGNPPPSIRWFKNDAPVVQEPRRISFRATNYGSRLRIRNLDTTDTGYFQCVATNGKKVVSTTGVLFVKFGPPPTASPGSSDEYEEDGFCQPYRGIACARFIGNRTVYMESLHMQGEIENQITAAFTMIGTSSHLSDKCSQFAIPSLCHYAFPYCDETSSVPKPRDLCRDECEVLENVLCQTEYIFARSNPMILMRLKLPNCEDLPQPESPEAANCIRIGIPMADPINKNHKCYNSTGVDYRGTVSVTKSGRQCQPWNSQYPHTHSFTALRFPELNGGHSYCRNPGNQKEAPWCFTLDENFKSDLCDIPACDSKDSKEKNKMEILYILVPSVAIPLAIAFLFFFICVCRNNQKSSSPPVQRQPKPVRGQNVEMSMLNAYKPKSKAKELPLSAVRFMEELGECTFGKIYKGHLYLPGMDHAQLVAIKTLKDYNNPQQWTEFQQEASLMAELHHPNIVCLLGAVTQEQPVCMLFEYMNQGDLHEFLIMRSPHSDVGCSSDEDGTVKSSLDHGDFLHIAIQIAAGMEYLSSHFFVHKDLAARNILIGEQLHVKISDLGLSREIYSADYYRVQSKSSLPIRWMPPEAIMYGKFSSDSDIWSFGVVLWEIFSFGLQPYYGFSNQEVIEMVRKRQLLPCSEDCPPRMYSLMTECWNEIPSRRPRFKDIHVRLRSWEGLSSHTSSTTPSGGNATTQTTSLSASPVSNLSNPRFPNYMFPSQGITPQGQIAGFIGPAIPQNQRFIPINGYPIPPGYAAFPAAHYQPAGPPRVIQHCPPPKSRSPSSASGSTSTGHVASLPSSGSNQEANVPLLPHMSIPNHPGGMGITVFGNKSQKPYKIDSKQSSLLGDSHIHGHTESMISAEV

- binding result: no binding
B1: CAR containing the rabbit anti-ROR1 (R12) scFv (VH-VL) (other)
chain: QEQLVESGGRLVTPGGSLTLSCKASGFDFSAYYMSWVRQAPGKGLEWIATIYPSSGKTYYATWVNGRFTISSDNAQNTVDLQMNSLTAADRATYFCARDSYADDGALFNIWGPGTLVTISSGGGGSGGGGSGGGGSELVLTQSPSVSAALGSPAKITCTLSSAHKTDTIDWYQQLQGEAPRYLMQVQSDGSYTKRPGVPDRFSGSSSGADRYLIIPSVQADDEADYYCGADYIGGYVFGGGTQLTVTG
notes: Control chimeric antigen receptor expressed on primary human CD8+ T cells; tEGFR marker is split off by T2A; also called R12 scFv CAR; not shown: Ig-derived hinge only spacer, human CD28-derived transmembrane domain, human 4-1BB-derived intracellular signaling domai
